From the supplement of paper PMC10567573

B1: SLC22A15 (parent)
chain: IAQYALLGYFIRSWRTLAILVNLQ

Variants of: B1
Test: protein stability index of a GFP-peptide fusion (GPS, HEK-293T) (PSI 1-6); higher = more stable
Conditions: c terminus: a fixed tail appended
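Also: lentivirally expressed fusions sorted by FACS into six bins by GFP to DsRed ratio, PSI derived from sequencing read proportions per bin multiplied by bin number.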

Going from IAQYALLGYFIRSWRTLIILVNLQ [A18I] to IAQYALLGYFIRSWRTLKILVNLQ [A18K], the protein stability index falls from 3.41 to 1.91.

Compared with IAQYALLGYFIRSWRTLLILVNLQ [A18L], IAQYALLGYFIRSWRTLMILVNLQ [A18M] is lower in protein stability index: 3.84 for the first, 2.17 for the second.

First: IAQYALLGYFIRSWRTLNILVNLQ [A18N]
Second: IAQYALLGYFIRSWRTLPILVNLQ [A18P]
The protein stability index of the first is higher: 3.65 for the first, 3 for the second.

Going from IAQYALLGYFIRSWRTLQILVNLQ [A18Q] to IAQYALLGYFIRSWRTLRILVNLQ [A18R], the protein stability index falls from 2.15 to 2.01.

Compared with IAQYALLGYFIRSWRTLSILVNLQ [A18S], IAQYALLGYFIRSWRTLWILVNLQ [A18W] is lower in protein stability index: 3.54 for the first, 2.12 for the second.

First: IAQYALLGYFIRSWRTLYILVNLQ [A18Y]
Second: IAQYALLGYFIRSWRTLAALVNLQ [I19A]
The protein stability index of the first is lower: 3.11 for the first, 3.93 for the second.

Compared with IAQYALLGYFIRSWRTLACLVNLQ [I19C], IAQYALLGYFIRSWRTLADLVNLQ [I19D] is lower in protein stability index: 3.7 for the first, 3.35 for the second.

First: IAQYALLGYFIRSWRTLAELVNLQ [I19E]
Second: IAQYALLGYFIRSWRTLAFLVNLQ [I19F]
The protein stability index of the first is higher: 4 for the first, 2.53 for the second.

First: IAQYALLGYFIRSWRTLAHLVNLQ [I19H]
Second: IAQYALLGYFIRSWRTLAKLVNLQ [I19K]
The protein stability index of the first is higher: 3.34 for the first, 2.96 for the second.

Compared with IAQYALLGYFIRSWRTLALLVNLQ [I19L], IAQYALLGYFIRSWRTLAMLVNLQ [I19M] is higher in protein stability index: 2.4 for the first, 2.84 for the second.

Compared with IAQYALLGYFIRSWRTLANLVNLQ [I19N], IAQYALLGYFIRSWRTLAPLVNLQ [I19P] is higher in protein stability index: 3 for the first, 3.94 for the second.

Compared with IAQYALLGYFIRSWRTLAQLVNLQ [I19Q], IAQYALLGYFIRSWRTLARLVNLQ [I19R] is lower in protein stability index: 3.02 for the first, 2.16 for the second.

Compared with IAQYALLGYFIRSWRTLASLVNLQ [I19S], IAQYALLGYFIRSWRTLATLVNLQ [I19T] is higher in protein stability index: 1.99 for the first, 2.44 for the second.

Going from IAQYALLGYFIRSWRTLAVLVNLQ [I19V] to IAQYALLGYFIRSWRTLAWLVNLQ [I19W], the protein stability index falls from 2.96 to 2.01.

Compared with IAQYALLGYFIRSWRTLAYLVNLQ [I19Y], IAQYALLGYFIRSWRTLAIAVNLQ [L20A] is lower in protein stability index: 3.28 for the first, 3.21 for the second.

Compared with IAQYALLGYFIRSWRTLAICVNLQ [L20C], IAQYALLGYFIRSWRTLAIDVNLQ [L20D] is lower in protein stability index: 3.7 for the first, 2.57 for the second.

Compared with IAQYALLGYFIRSWRTLAIEVNLQ [L20E], IAQYALLGYFIRSWRTLAIGVNLQ [L20G] is higher in protein stability index: 2.77 for the first, 3.27 for the second.

First: IAQYALLGYFIRSWRTLAIHVNLQ [L20H]
Second: IAQYALLGYFIRSWRTLAIIVNLQ [L20I]
The protein stability index of the first is lower: 3.94 for the first, 5.13 for the second.

Going from IAQYALLGYFIRSWRTLAIKVNLQ [L20K] to IAQYALLGYFIRSWRTLAIMVNLQ [L20M], the protein stability index rises from 2.38 to 3.89.

First: IAQYALLGYFIRSWRTLAINVNLQ [L20N]
Second: IAQYALLGYFIRSWRTLAIPVNLQ [L20P]
The protein stability index of the first is lower: 2 for the first, 3.33 for the second.

First: IAQYALLGYFIRSWRTLAIQVNLQ [L20Q]
Second: IAQYALLGYFIRSWRTLAIRVNLQ [L20R]
The protein stability index of the first is higher: 3.19 for the first, 3.09 for the second.

First: IAQYALLGYFIRSWRTLAISVNLQ [L20S]
Second: IAQYALLGYFIRSWRTLAITVNLQ [L20T]
The protein stability index of the first is higher: 3.12 for the first, 2.91 for the second.

Compared with IAQYALLGYFIRSWRTLAIVVNLQ [L20V], IAQYALLGYFIRSWRTLAIWVNLQ [L20W] is higher in protein stability index: 2.1 for the first, 2.32 for the second.

Going from IAQYALLGYFIRSWRTLAIYVNLQ [L20Y] to IAQYALLGYFIRSWRTLAILANLQ [V21A], the protein stability index rises from 2.76 to 2.78.

Going from IAQYALLGYFIRSWRTLAILCNLQ [V21C] to IAQYALLGYFIRSWRTLAILDNLQ [V21D], the protein stability index rises from 2.52 to 2.85.

Compared with IAQYALLGYFIRSWRTLAILENLQ [V21E], IAQYALLGYFIRSWRTLAILFNLQ [V21F] is higher in protein stability index: 2.14 for the first, 2.86 for the second.

Going from IAQYALLGYFIRSWRTLAILGNLQ [V21G] to IAQYALLGYFIRSWRTLAILHNLQ [V21H], the protein stability index rises from 1.76 to 2.69.

Going from IAQYALLGYFIRSWRTLAILINLQ [V21I] to IAQYALLGYFIRSWRTLAILKNLQ [V21K], the protein stability index falls from 4.67 to 2.38.

First: IAQYALLGYFIRSWRTLAILLNLQ [V21L]
Second: IAQYALLGYFIRSWRTLAILNNLQ [V21N]
The protein stability index of the first is higher: 3.19 for the first, 2.8 for the second.

Compared with IAQYALLGYFIRSWRTLAILPNLQ [V21P], IAQYALLGYFIRSWRTLAILQNLQ [V21Q] is lower in protein stability index: 3.37 for the first, 2.24 for the second.

Compared with IAQYALLGYFIRSWRTLAILRNLQ [V21R], IAQYALLGYFIRSWRTLAILSNLQ [V21S] is lower in protein stability index: 2.7 for the first, 2.08 for the second.

First: IAQYALLGYFIRSWRTLAILTNLQ [V21T]
Second: IAQYALLGYFIRSWRTLAILYNLQ [V21Y]
The protein stability index of the first is higher: 3.6 for the first, 2.37 for the second.

First: IAQYALLGYFIRSWRTLAILVALQ [N22A]
Second: IAQYALLGYFIRSWRTLAILVDLQ [N22D]
The protein stability index of the first is lower: 2.95 for the first, 3.52 for the second.

Going from IAQYALLGYFIRSWRTLAILVELQ [N22E] to IAQYALLGYFIRSWRTLAILVFLQ [N22F], the protein stability index rises from 2.57 to 2.84.

Going from IAQYALLGYFIRSWRTLAILVGLQ [N22G] to IAQYALLGYFIRSWRTLAILVHLQ [N22H], the protein stability index rises from 1.88 to 2.27.

Going from IAQYALLGYFIRSWRTLAILVILQ [N22I] to IAQYALLGYFIRSWRTLAILVKLQ [N22K], the protein stability index falls from 3.28 to 2.52.

Compared with IAQYALLGYFIRSWRTLAILVMLQ [N22M], IAQYALLGYFIRSWRTLAILVQLQ [N22Q] is higher in protein stability index: 2.6 for the first, 3.36 for the second.

Going from IAQYALLGYFIRSWRTLAILVRLQ [N22R] to IAQYALLGYFIRSWRTLAILVSLQ [N22S], the protein stability index rises from 1.22 to 2.85.

Compared with IAQYALLGYFIRSWRTLAILVTLQ [N22T], IAQYALLGYFIRSWRTLAILVVLQ [N22V] is higher in protein stability index: 1.9 for the first, 2.23 for the second.

First: IAQYALLGYFIRSWRTLAILVWLQ [N22W]
Second: IAQYALLGYFIRSWRTLAILVYLQ [N22Y]
The protein stability index of the first is higher: 3.89 for the first, 1.37 for the second.

Compared with IAQYALLGYFIRSWRTLAILVNAQ [L23A], IAQYALLGYFIRSWRTLAILVNCQ [L23C] is higher in protein stability index: 2.65 for the first, 3.16 for the second.

First: IAQYALLGYFIRSWRTLAILVNDQ [L23D]
Second: IAQYALLGYFIRSWRTLAILVNEQ [L23E]
The protein stability index of the first is higher: 3.83 for the first, 2.25 for the second.

First: IAQYALLGYFIRSWRTLAILVNFQ [L23F]
Second: IAQYALLGYFIRSWRTLAILVNGQ [L23G]
The protein stability index of the first is lower: 2.79 for the first, 3.35 for the second.

First: IAQYALLGYFIRSWRTLAILVNHQ [L23H]
Second: IAQYALLGYFIRSWRTLAILVNIQ [L23I]
The protein stability index of the first is higher: 2.81 for the first, 2.5 for the second.

Compared with IAQYALLGYFIRSWRTLAILVNKQ [L23K], IAQYALLGYFIRSWRTLAILVNMQ [L23M] is higher in protein stability index: 3.75 for the first, 4.11 for the second.

Compared with IAQYALLGYFIRSWRTLAILVNNQ [L23N], IAQYALLGYFIRSWRTLAILVNPQ [L23P] is lower in protein stability index: 3.06 for the first, 2.52 for the second.

Going from IAQYALLGYFIRSWRTLAILVNQQ [L23Q] to IAQYALLGYFIRSWRTLAILVNRQ [L23R], the protein stability index falls from 3.66 to 2.6.
